{"source": "patent US6569833B1", "about": "“Cyclin dependent kinase binding peptides” (Cyclacel Limited, priority 1995, dated 2003)", "molecules": {"B1": {"name": "cdk4 (protein)", "chain": "MATSRYEPVAEIGVGAYGTVYKARDPHSGHFVALKSVRVPNGGGGGGGLPISTVREVALLRRLEAFEHPNVVRLMDVCATSRTDREIKVTLVFEHVDQDLRTYLDKAPPPGLPAETIKDLMRQFLRGLDFLHANCIVHRDLKPENILVTSGGTVKLADFGLARIYSYQMALTPVVVTLWYRAPEVLLQSTYATPVDMWSVGCIFAEMFRRKPLFCGNSEADQLGKIFDLIGLPPEDDWPRDVSLPRGAFPPRGPRPVQSVVPEMEESGAQLLLEMLTFNPHKRISAFRALQHSYLHKDEGNPE"}, "B2": {"name": "peptide 21 (36 aa synthetic peptide, Penetratin-p16 peptide carrying the VV.95,96AA mutation) (peptide)", "peptide": "RQIKIWFQNRRMKWKKDAAREGFLDTLAALHRAGAR"}}, "key": {"[1]": {"biological_target": "cdk4 (human, UniProt P11802 1-303)", "test": "cell-based or functional assay"}, "[2]": {"biological_target": "T1, cdk4-cyclin D (Homo sapiens, UniProt P11802)", "T1 construct": "made in house; host or cells: Sf9 insect cells infected with baculovirus (separate crude lysates for cdk4 and cyclin D, mixed in the assay)", "test": "pRb phosphorylation in vitro by Sf9 lysates containing cdk4 and cyclin D", "type": "biochemical", "conditions": "for block of cdk4-cyclin D dependent pRb phosphorylation: 50 μM peptide, dilution series"}, "[3]": {"tested_on": "HaCaT cells", "test": "Cell cycle inhibition: S-phase entry of serum-starved cells by BrdU incorporation", "type": "cell-based, human", "conditions": "10 μM peptide concentration", "experimental": "Cells were synchronised in G0 by serum starvation for 72 hours before serum and 10 μM BrdU were added. […] The data presented show % inhibition of cells entering S-phase after incubation with peptide 6 coupled to Penetratin in relation to cells incubated with serum only.\nA cysteine residue was added to the C-terminus of peptide 6 and used for coupling to the 16 amino acids long Penetratin peptide (amino acid sequence RQIKIWFQNRRMKWKK)(SEQ ID NO:3) of the Antennapedia homeodomain (24) (Appligen) by means of a disulzhide bond. Cells were seeded on cover slips prior to starvation for 72 hours in DMEM medium without FCS. The medium was substituted by DMM containing 10% FCS and BrdU. The coupled peptides were added at different time points after serum stimulation. The number of cells entering S-phase was determined by estimating the numbers of cells incorporating BrdU at 24 hours by fixing the cells on cover slips in acetone/methanol (1:1), incubating in 1M HCl for 30 minutes, washing 6 times in PBS and then incubating with anti-BrdU monoclonal antibody and Texas Red conjugated secondary antibody and mounted in Mowiol containing Hoescht. At least six different areas on three different cover slips were counted for each single experiment which was repeated at least two times. The values presented in FIG. 3A show one representative experiment."}, "[4]": {"biological_target": "T2, cdk4 (Homo sapiens, UniProt P11802)", "T2 construct": "host or cells: coupled in vitro transcription/translation in rabbit reticulocyte lysate", "test": "Peptide precipitation of in vitro translated 35S-labelled cdk4 from reticulocyte lysate", "type": "binding", "conditions": "biotinylated peptide on streptavidin agarose beads, densitometry", "experimental": "(§1) A 20 aa peptide library with a 5 aa overlap of p16 (apart from the first 8 N-terminal residues) was synthesised adding a SGSG linker to the N-terminus to which a biotin group was coupled. The alanine substitution series of peptide 6 was synthesised in the same way. The peptides were coupled to streptavidin immobilised on agarose beads and washed 4 times in PBS before incubating for 1 hour on ice with rabbit reticulocyte lysate (Promega) containing ^35S-methionine labelled cdk4 or cdk6. The beads were washes 4 times in 1.2×PBS with 0.2% Triton X-100 before addition of SDS loading buffer and applied to 12% SDS polyacrylamide gels. The gels were exposed to an autoradiography film and the bands corresponding to cdk4 and cdk6 were analysed by densitometry.\n(§2) To study the binding of peptides to cdk4 and cdk6 we expressed the proteins in a coupled in vitro reticulocyte translation system in the presence of ^35S labelled methionine. A biotin group coupled to a Ser-Gly-Ser-Gly-linker at the N-terminus of the peptides was coupled to streptavidin coated agarose beads and incubated with the cell lysates."}, "[5]": {"biological_target": "T1, cdk4-cyclin D", "test": "pRb phosphorylation in vitro by Sf9 lysates containing cdk4 and cyclin D", "type": "biochemical", "design": "dose or concentration left out as unconfirmed", "conditions": "full length Rb protein", "experimental": "Peptides were incubated at a concentration of […] in a buffer containing 50 mM Hepes pH 7.4, 10 mM MgCl2, 2.5 mM EGTA, 1 mM DTT, 10 mM β-glycerophosphate, 1 mM NaF and 1 mM Na3VO4 and […] of extract from Sf9 insect cells infected with human cdk4-expressing baculovirus lysed in 10 mM Hepes pH 7.4, 10 mM NaCl, 1 mM EDTA and 0.5 mM PMSF. The mixture was incubated for 60 minutes on ice. Human cyclin D containing Sf9 lysate ([…]) prepared as above was added together with 0.6 mg of purified recombinant full length Rb protein and 2.5 mM ^32P ATP in a final concentration of […] ATP and incubated for 10 minutes at +30° C., the reaction was terminated by addition of SDS loading buffer and loaded onto 8% SDS polyacrylamide gels. The gels were either exposed to autoradiographic film (FIG. 2A) or the levels of pRb phosphorylation were estimated by a Phosphoimager (FIG. 2B)."}, "[6]": {"biological_target": "T3, cdk6 (Homo sapiens, UniProt Q00534)", "T3 construct": "host or cells: coupled in vitro transcription/translation in rabbit reticulocyte lysate", "T3 sequence (Q00534 whole entry)": "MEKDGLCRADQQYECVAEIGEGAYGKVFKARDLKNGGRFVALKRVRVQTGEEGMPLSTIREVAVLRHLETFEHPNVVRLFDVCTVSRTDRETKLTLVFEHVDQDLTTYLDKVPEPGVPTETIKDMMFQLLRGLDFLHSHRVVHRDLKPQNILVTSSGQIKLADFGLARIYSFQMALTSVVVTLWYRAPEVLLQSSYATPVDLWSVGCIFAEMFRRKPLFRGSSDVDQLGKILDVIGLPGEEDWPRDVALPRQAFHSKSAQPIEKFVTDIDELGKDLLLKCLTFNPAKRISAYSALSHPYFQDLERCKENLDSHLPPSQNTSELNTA", "test": "Peptide precipitation of in vitro translated 35S-labelled cdk6 from reticulocyte lysate", "type": "binding", "conditions": "biotinylated peptide on streptavidin agarose beads, densitometry", "experimental": "as §1, §2"}, "[7]": {"biological_target": "peptide 1 of the p16 20 aa peptide library"}, "[8]": {"biological_target": "T4, peptide 6 with residue 94 substituted by alanine", "T4 chain": "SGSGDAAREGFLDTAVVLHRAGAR"}, "[9]": {"biological_target": "T5, peptide 6 with aspartic acid 92 substituted by alanine", "T5 chain": "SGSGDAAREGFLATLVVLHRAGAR"}, "[10]": {"biological_target": "T6, peptide 6 (amino acids 84 to 103 of p16), biotinylated via N-terminal SGSG linker", "T6 chain": "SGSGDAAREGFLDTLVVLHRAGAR"}, "[11]": {"biological_target": "peptide 10 of the p16 20 aa peptide library"}}}
{"molecule": "His-tagged p16 protein with the VV.95,96AA mutations (from UniProt P42771 1-156)", "values": [{"measurement": "50% kinase inhibitory concentration, fold increase against wild type His-tagged p16", "setting": "[1]", "value": 5, "unit": "fold"}]}
{"molecule": "peptide 21: 36aa synthetic peptide (Penetratin sequence plus 20aa p16 peptide) that carries the VV.95,96AA mutation (RQIKIWFQNRRMKWKKDAAREGFLDTLAALHRAGAR)", "values": [{"measurement": "inhibition of cdk-cyclin D kinase activity", "setting": "[2]; 36aa Penetratin-linked peptides, increasing concentrations (FIG. 6A)", "value": "less active"}, {"measurement": "block of S-phase entry", "setting": "[3]", "value": "significantly less active in vivo"}, {"measurement": "block of S-phase entry", "setting": "[3]; listed as pep21", "value": "only marginal effect"}]}
{"molecule": "DAARAGFLDTLQTLLEFQAD (SGSGDAARAGFLDTLQTLLEFQAD) [p18 peptide, peptide derived from p18 corresponding to the 84-103 region of p16]", "values": [{"measurement": "relative binding to in vitro expressed cdk4", "setting": "[4]", "value": "binds"}, {"measurement": "inhibition of pRb phosphorylation", "setting": "[5]", "value": "inhibit pRb phosphorylation"}, {"measurement": "relative binding to in vitro expressed cdk6", "setting": "[6]", "value": "binds"}]}
{"molecule": "Ala92: peptide 6 in which aspartic acid 92 is substituted by alanine (SGSGDAAREGFLATLVVLHRAGAR)", "values": [{"measurement": "block of cdk4-cyclin D dependent pRb phosphorylation", "setting": "[2]; listed as Ala92 peptide", "value": "almost completely blocked"}, {"measurement": "block of cdk4-cyclin D dependent pRb phosphorylation", "setting": "[2]; listed as Ala-92", "value": "nearly complete"}, {"measurement": "relative binding to in vitro expressed cdk4", "setting": "[4]", "value": "more potent binding"}, {"measurement": "inhibition of pRb phosphorylation", "setting": "[5]", "value": "even more efficiently than the wild type peptide 6"}, {"measurement": "relative binding to in vitro expressed cdk6", "setting": "[6]", "value": "more potent binding"}]}
{"molecule": "DAAREGFLDTLVVLHGSGAR (SGSGDAAREGFLDTLVVLHGSGAR) [mouse p16 peptide, peptide derived from mouse p16 corresponding to the 84-103 region of p16]", "values": [{"measurement": "relative binding to in vitro expressed cdk4", "setting": "[4]", "value": "binds"}, {"measurement": "inhibition of pRb phosphorylation", "setting": "[5]", "value": "inhibit pRb phosphorylation"}, {"measurement": "relative binding to in vitro expressed cdk6", "setting": "[6]", "value": "binds"}]}
{"molecule": "FLDTLVVLHRAG [peptide 9, 12 aa peptide of the p16 deletion series]", "values": [{"measurement": "inhibition of pRb phosphorylation", "setting": "[5]", "value": "able to exert a biological effect which is the same or analogous to that of full length p16"}]}
{"molecule": "AREGFLDTLVVLHRAGAR (SGSGAREGFLDTLVVLHRAGAR) [peptide 6 in FIGS. 5A-C, deletion series peptide, 2 residues removed at the N-terminus of the p16 84-103 peptide]", "values": [{"measurement": "relative binding to in vitro expressed cdk4", "setting": "[4]", "value": "severely reduced"}, {"measurement": "inhibition of pRb phosphorylation", "setting": "[5]", "value": "severely reduced"}, {"measurement": "relative binding to in vitro expressed cdk6", "setting": "[6]", "value": "severely reduced"}]}
{"molecule": "DAAPEGFLDTLVVLHRAGAR [R87P, p16 84-103 peptide with the R87P substitution]", "values": [{"measurement": "inhibition of pRb phosphorylation", "setting": "[5]", "value": "does not hamper the function of the peptide"}]}
{"molecule": "FLDTLVVLHRAGAR [peptide 8, 14 aa peptide of the p16 deletion series]", "values": [{"measurement": "inhibition of pRb phosphorylation", "setting": "[5]", "value": "able to exert a biological effect which is the same or analogous to that of full length p16"}]}
{"molecule": "EGFLDTLVVLHRAGAR [peptide 7, 16 aa peptide of the p16 deletion series]", "values": [{"measurement": "inhibition of pRb phosphorylation", "setting": "[5]", "value": "able to exert a biological effect which is the same or analogous to that of full length p16"}]}
{"molecule": "Ala94: peptide 6 with the single alanine substitution at residue 94 (SGSGDAAREGFLDTAVVLHRAGAR)", "values": [{"measurement": "block of cdk4-cyclin D dependent pRb phosphorylation", "setting": "[2]", "value": "completely inactivates the function of peptide 6"}]}
{"molecule": "B1", "values": [{"measurement": "pRb phosphorylation", "setting": "[7]", "value": "do not affect pRb phosphorylation"}, {"measurement": "pRb phosphorylation (dilution series)", "setting": "[8]", "value": "the single substitution Ala94 completely inactivates the function of peptide 6 in this assay"}, {"measurement": "phosphorylation of the full length Rb protein by Sf9 lysates containing cdk4 and cyclin D", "setting": "[9]", "value": "inhibits phosphorylation of the full length Rb protein even more efficiently than the wild type peptide 6"}, {"measurement": "level of pRb phosphorylation by Sf9 lysates containing cdk4 and cyclin D", "setting": "[10]", "value": "significantly reduces the level of pRb phosphorylation"}, {"measurement": "pRb phosphorylation", "setting": "[11]", "value": "do not affect pRb phosphorylation"}]}
{"molecule": "B2", "values": [{"measurement": "50% kinase inhibitory concentration, fold increase", "setting": "[1]", "value": "~5", "unit": "fold"}]}
